Measured values: patent publication US20210356479A1 (BLOODWORKS, published 2021)
Changes are numbered by the printed parent chain.

How the values were obtained:
[1] = target: T1, human Kell glycoprotein, Kp^b form (KEL4) (human, UniProt P23276 1-732); test: flow cytometry, indirect immunofluorescence on human RBCs
T1 construct: whole, on cells; On human Kp^b/Kp^b RBCs
T1 sequence (looked up): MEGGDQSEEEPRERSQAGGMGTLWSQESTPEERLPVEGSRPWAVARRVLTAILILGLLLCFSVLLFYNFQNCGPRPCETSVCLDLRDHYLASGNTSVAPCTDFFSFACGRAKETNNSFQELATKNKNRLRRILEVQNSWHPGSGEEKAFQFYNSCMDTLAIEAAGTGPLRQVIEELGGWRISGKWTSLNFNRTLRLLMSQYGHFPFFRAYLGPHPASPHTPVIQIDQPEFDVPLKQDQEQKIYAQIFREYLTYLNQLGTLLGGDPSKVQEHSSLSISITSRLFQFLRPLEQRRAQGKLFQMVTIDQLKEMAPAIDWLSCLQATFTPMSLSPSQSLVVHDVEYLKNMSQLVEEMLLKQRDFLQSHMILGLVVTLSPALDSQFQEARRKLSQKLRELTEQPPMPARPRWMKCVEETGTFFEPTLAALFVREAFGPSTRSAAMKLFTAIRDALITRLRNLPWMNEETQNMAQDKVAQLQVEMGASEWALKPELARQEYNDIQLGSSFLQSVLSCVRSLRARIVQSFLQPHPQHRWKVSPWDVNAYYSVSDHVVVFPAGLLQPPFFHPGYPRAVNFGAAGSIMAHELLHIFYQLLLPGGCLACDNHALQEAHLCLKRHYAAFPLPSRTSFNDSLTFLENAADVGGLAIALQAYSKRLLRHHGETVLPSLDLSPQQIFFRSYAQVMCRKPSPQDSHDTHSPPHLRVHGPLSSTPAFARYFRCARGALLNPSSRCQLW
Method: (§1) The specificities of the antibodies were determined to be: PUMA ½ (KEL1 or K), PUMA 3 (a common Kell epitope, PUMA 4 (KEL4 or Kp^b). Flow cytometry was utilized to test antibody specificity by indirect immunofluorescence, using the monocolonal antibodies as the primary reagent and a goat-anti-mouse antibody (conjugated to allophycocyanin) as a secondary antibody. Different target cells expressing different Kell variants were used to determine specificity. Targets included RBCs that phenotyped as homozygous for the 3 main antithetical antigens in the Kell system, K/K, k/k, Kp^{b/}Kp^b, Kp^{a/}Kp^a. Js^{b/}J^b, Js^{a/}Js^a. Differential binding to such tarets tests specificity. In the case of PUMA ½, binding was only observed when K was present but not on k/k RBCs. In the case of PUMA 3, binding was observed on all RBCs regardless of phenotype for K/k, Kp^{a/}Kp^{b,} or Js^{a/}Js^b, thus indicating a common epitope outside these systems. However, PUMA 3 bound to only KELL glycoprotein transgenic murine RBCs and not wild-type murine RBCs; thus, the epitope recognized by PUMA 3 is on the KELL molecule, but not K/k, Kp^{a/}Kp^b, or Js^{a/}Js^b. For PUMA 4, binding was only observed when Kp^b was present but not on Kp^{a/}Kp^a RBCs.

[2] = target: T2, human Kell glycoprotein, k form (KEL2) (human, UniProt P23276 1-732); test: flow cytometry, indirect immunofluorescence on k/k human RBCs
T2 construct: whole, on cells; On human k/k or K-k+ RBCs; also called k antigen
T2 sequence (looked up): T1 sequence (looked up)
Method: as §1

[3] = target: T3, human Kell glycoprotein, K form (KEL1) (human, UniProt P23276 1-732); test: flow cytometry on K transgenic mouse RBCs
T3 construct: whole, on cells; On human K/K or K+k+ RBCs and on RBCs of K transgenic mice; also called K antigen; K variant
T3 sequence (looked up): T1 sequence (looked up) with T193M

[4] = target: T4, human Kell glycoprotein, Js^b form (KEL7) (human, UniProt P23276 1-732); test: flow cytometry, indirect immunofluorescence on Js^b/Js^b human RBCs
T4 construct: whole, on cells; On human Js^b/Js^b RBCs
T4 sequence (looked up): T1 sequence (looked up)
Method: as §1

[5] = target: T3, human Kell glycoprotein, K form (KEL1); test: flow cytometry, indirect immunofluorescence on K/K human RBCs
Method: as §1

[6] = target: T1, human Kell glycoprotein, Kp^b form …; test: flow cytometry, indirect immunofluorescence on Kp^b/Kp^b human RBCs
Method: as §1

[7] = target: T2, human Kell glycoprotein, k form (KEL2); test: flow cytometry on human K-k+ RBCs
[8] = target: T3, human Kell glycoprotein, K form (KEL1); test: flow cytometry on human K+k+ RBCs, detected with polyclonal anti-IgG
Method: Flow cytometry consisted of incubating test RBCs with PUMA 1 variants, followed by the anti-IgG being evaluated, followed by a detection reagent. Test RBCs included RBCs from K mice, wild-type mice, and reagent RBCs from humans with the phenotype of (K+k+) or (K−k+). Test RBCs were resuspended in 50 microliters of supernatants of PUMA 1 isoallotypes; in some cases a 1/10 dilution in phosphate buffered saline (PBS) was used. For purified IgG1-IgG4 PUMA 1, the antibodies were diluted in PBS at the indicated concentrations. The tested anti-IgG reagents were used undiluted. Detection reagents consisted of donkey anti-rabbit conjugated to phycoerythrin at a 1/200 dilution (Affymetrix cat #12-4739-81, Santa Clara, Calif.), goat anti-mouse IgM conjugated to allophycocyanin at a 1/100 dilution (BD Biosciences, cat #550826, San Jose, Calif.), and goat anti-mouse Igs conjugated to allophycocyanin at a 1/100 dilution (SouthernBiotech cat #1020-11s, Birmingham, Ala.). All anti-IgG subclass antibodies were conjugated to phycoerythrin, were purchased from SouthernBiotech (catalog numbers 9056-09, 9070-09, 9210-09, 9200-09), and were used at a dilution of 1.200. All incubations were performed for 30 min at room temperature, followed by three washes with PBS. All flow cytometry was performed on an Accuri 4 color cytometer (BD biosciences, San Jose Calif.) and all data was analyzed with Flo-Jo version 10.
To assess the sensitivity of commercially available anti-IgG preparations for different human IgG subclasses bound to RBCs, K+k+ RBCs were first incubated with PUMA 1 of the different human IgG subclasses, followed by incubation with anti-IgG. Treated RBCs were then stained with a fluorescently labeled antibody specific for the species in which the anti-IgG was generated (and non-reactive with human IgG). For each anti-IgG, the same secondary antibody was used to detect binding of the anti-IgG to each human PUMA 1 IgG subclass. To assess relative sensitivity, titrations of each PUMA 1 IgG subclass were carried out and samples were analyzed by flow cytometry using mean fluorescent intensity (MFI) to quantify staining (FIGS. 28A, 28B).

B1: PUMA 4 monoclonal antibody (antibody, V domains shown)
VH: EVKLEESGGGLVQPGGSMKLSCVASGFTFSNYWMNWVRQPPEKGLEWVAEIRLNSNNYATHYAESVKGKFTISRDDSKSSVYLQMNDLRAEDTGIYYCTRNWDFAWFDSWGQGTLVTVSA
VL: DIVMTQSHKFMSTSVGDRVSITCKASQDVSTVVAWYQQKPGQSPKLLIYWASTRHTGVPDRFTGSGSGTDYTLTISSVQAEDLALYYCQQHYTTPFTFGSGTKLEIK
notes: Mouse monoclonal from hybridoma
- binding result [1]: binds

B2: PUMA 1 monoclonal anti-K antibody (antibody, mouse IgG2a, V domains shown)
VH: EVQLQQSGPELVKPGASVKMSCKASGYTFTDYYMKWVKQSHGKSLEWIGDLNPNNGDTFYNQKFKGKATLTVDKSSSTAYIQLNSLTSEDSAVYYCAREAGSSFGSSCNYWGQGTTLTVS
VL: SVVMTQTPKFLLVSAGDRVTITCKASQTVSKDVAWYQQQPGQSPKLLIYYASNRYTGVPDRFTGSGYGTDFTFTISTVQAEDLAVYFCQQDYSSPYTFGGGTKLEIK
notes: also called PUMA 2; PUMA ½
- binding result [2]: no binding
- binding result [3]: binds

B3: PUMA 3 monoclonal antibody (antibody, V domains shown)
VH: QVQLKESGPGLLAPSQSLSITCTVSGFSLTSYGVYWVRQPPGKGLEWLGIIWGDGSTNYQSVLRSRLSITKDDSKSQVFLKLNSLQTDDTATYYCAKRGDYDVAYWGQGTLVTVSA
VL: DIVLTQSPASLAVSLGQRAIISCKASQTVSEVGTSLMHWYQQRPGQQPKLLIYRTSNLEAGVPTRFSGSGSRTDFTLNIHPVEEDDAATYYCQQSREFPWTFGGGTRLEIK
notes: as for B1
- binding result [2]: binds
- binding result [4]: binds
- binding result [5]: binds
- binding result [6]: binds

B4: PUMA 1 human IgG3-18 isoallotype (antibody)
heavy: B2 VH
light: B2 VL
notes: Isoallotype named in CLM-00007; not shown: human IgG3 heavy chain constant region, isoallotype IGHG3*18; human kappa light chain constant region (vector pFUSE2-CLIg-hk)
- binding result [7]: no binding
- binding result [8]: binds

B5: PUMA 1 human IgG3-19 isoallotype (antibody)
heavy: B2 VH
light: B2 VL
notes: Isoallotype named in CLM-00007; not shown: human IgG3 heavy chain constant region, isoallotype IGHG3*19; human kappa light chain constant region (vector pFUSE2-CLIg-hk)
- binding result [7]: no binding
- binding result [8]: binds

B6: PUMA 1 human IgG4-02 isoallotype (antibody)
heavy: B2 VH
light: B2 VL
notes: not shown: human IgG4 heavy chain constant region, isoallotype IGHG4*02; human kappa light chain constant region (vector pFUSE2-CLIg-hk)
- binding result [7]: no binding
- binding result [8]: binds

B7: PUMA 1 human IgG4-03 isoallotype (antibody)
heavy: B2 VH
light: B2 VL
notes: not shown: human IgG4 heavy chain constant region, isoallotype IGHG4*03; human kappa light chain constant region (vector pFUSE2-CLIg-hk)
- binding result [7]: no binding
- binding result [8]: binds
